{"source": "paper PMC7710122", "key": {"[1]": {"test": "western blot of β1 in purified sEVs", "settings": "glycan changed form; control: vec-sEVs"}, "[2]": {"test": "western blot of cell lysates", "settings": "glycan changed form; control: MDA/vec"}}, "data": [{"substance": "integrin β1: MGAT3 overexpression", "values": [{"measurement": "localisation_or_trafficking", "setting": "[1]", "value": "no change"}, {"measurement": "expression_or_secretion", "setting": "[2]", "value": "no change"}]}]}
